Results from the RNAGym collection of RNA variant scans (doi:10.1073/pnas.2313332121).

B1: TPR t1 (parent)
chain: GACCAAUCUGCCCUCAGAGCUCGAGAACAUCUUCGGAUGCAGAGGAGGCAGGCUUCGGUGGCGCGAUAGCGCCAACGUCCUCAACCUCCAAUGCAUCCCACCACAUGAUGAUGCCUGAAGAGCCUUGGUUUUUUG

Variants of: B1
Assay: polymerase ribozyme fitness, log enrichment relative to wild type (log ratio); higher = more active; in vitro selection for triplet polymerase activity
How it was run: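 Each subunit of a heterodimeric triplet polymerase ribozyme was represented by a PCR-built, transcribed mutant library that underwent triplicate single-round in vitro selection with frozen incubation at −7 °C. Extended constructs were recovered by gel excision, streptavidin-bead capture and RT-PCR, and Illumina sequencing of input and output libraries kept genotypes with ≥10 input reads and ≥1 read per output. Fitness is the logarithm of genotype enrichment relative to wild-type enrichment, from inverse-variance-weighted replicate averages, with a logarithm base of 2.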

Variant | polymerase ribozyme fitness (log ratio)
GACCAAUCUGCCCUCAGAGCUCGAGAACAUCUUCGGAUGCAGAGGAGGCAGGCUUCGGUGGCGCGAUAUCGCCAACGUCCUCAACCUCCAAUGCAUCCCACCACAUGACGAUGCCUGAAGAGCCUUGGUUUUUUG [G69U U109C] | -0.222
GACCAAUCUGCCCUCAGAGCUCGAGAACAUCUUCGGAUGCAGAGGAGGCAGGCUUCGGUGGCGCGAUAGAGCCAACGUCCUCAAACUCCAAUGCAUCCCACCACAUGAUGAUGCCUGAAGAGCCUUGGUUUUUUG [C70A C85A] | -3.25
GACCAAUCUGCCCUCAGAGCUCGAGAACAUCUUCGGAUGCAGAGGAGGCAGGCUUCGGUGGCGCGAUAGAGCCAACGUCCUCAAUCUCCAAUGCAUCCCACCACAUGAUGAUGCCUGAAGAGCCUUGGUUUUUUG [C70A C85U] | -2.32
GACCAAUCUGCCCUCAGAGCUCGAGAACAUCUUCGGAUGCAGAGGAGGCAGGCUUCGGUGGCGCGAUAGAGCUAACGUCCUCAACCUCCAAUGCAUCCCACCACAUGAUGAUGCCUGAAGAGCCUUGGUUUUUUG [C70A C73U] | -1.81
GACCAAUCUGCCCUCAGAGCUCGAGAACAUCUUCGGAUGCAGAGGAGGCAGGCUUCGGUGGCGCGAUAGAGCCAACGUCCUCAACCUCCAAUGCAUCCCACAACAUGAUGACGCCUGAAGAGCCUUGGUUUUUUG [C70A C102A U112C] | -2.45
GACCAAUCUGCCCUCAGAGCUCGAGAACAUCUUCGGAUGCAGAGGAGGCAGGCUUCGGUGGCGCGAUAGAGCCUACGUCCUCAACCUCCAAUGCAUCCCACCACAUGAUGAUGCCUGAAGAGCCUUGGUUUUUUG [C70A A74U] | -3.39
GACCAAUCUGCCCUCAGAGCUCGAGAACAUCUUCGGAUGCAGAGGAGGCAGGCUUCGGUGGCGCGAUAGAGUCAACGUCCUCAACCUCCAAGGCAUCCCACCACAUGAUGAUGCCUGAAUAGCCUUGGUUUUUUG [C70A C72U U92G G120U] | -6
GACCAAUCUGCCCUCAGAGCUCGAGAACAUCUUCGGAUGCAGAGGAGGCAGGCUUCGGUGGCGCGAUAGAGCCAACGUCCUCAACCUCCAAUGCAUCCCAGCACAUGAUGAUGCCUGAAGAGCCUUGGUUUUUUG [C70A C101G] | -4.14
GACCAAUCUGCCCUCAGAGCUCGAGAACAUCUUCGGAUGCAGAGGAGGCAGGCUUCGGUGGCGCGAUAGAGCCAGCGUCCUCAACCUCCAAUGCAUCCCACCACAUGAUGAUGCCUGAAGAGCCUUGGUUUUUUG [C70A A75G] | -2.89
GACCAAUCUGCCCUCAGAGCUCGAGAACAUCUUCGGAUGCAGAGGAGGCAGGCUUCGGUGGCGCGAUAGAGCCAACGUCCUCAACCUCCAAUGCAUCCCACCACAUGAUGAUGCCUGAAGAGGCUUGGUUUUUUG [C70A C123G] | -0.534
GACCAAUCUGCCCUCAGAGCUCGAGAACAUCUUCGGAUGCAGAGGAGGCAGGCUUCGGUGGCGCGAUAGAGCCAACGUCCUCAACCUCCAAUGCAUCCCACCACAUGAUGAUGCCUGAAGAGUCUUGGUUUUUUG [C70A C123U] | -0.0495
GACCAAUCUGCCCUCAGAGCUCGAGAACAUCUUCGGAUGCAGAGGAGGCAGGCUUCGGUGGCGCGAUAGAGCCAACGUCCUCAACCUCCAAUGCAUCCCAUCACACGAUGAUGCCUGAAGAGCCUUGGUUUUUUG [C70A C101U U106C] | -1.6
GACCAAUCUGCCCUCAGAGCUCGAGAACAUCUUCGGAUGCAGAGGAGGCAGGCUUCGGUGGCGCGAUAGAGCCAACGUCCUCAACCUCCAAUGUAUCCCACCACAUGAUGAUGCCUGAAGAGCCUUGGUUUUUUG [C70A C94U] | -1.23
GACCAAUCUGCCCUCAGAGCUCGAGAACAUCUUCGGAUGCAGAGGAGGCAGGCUUCGGUGGCGCGAUAGAGCCAACGUCGUCAACCAUCAAUGUAUCCCACCACAUGAUGAUGCCUGAAGAGGCUUGGUUUUUUG [C70A C80G U87A C88U C94U C123G] | -6.08
GACCAAUCUGCCCUCAGAGCUCGAGAACAUCUUCGGAUGCAGAGGAGGCAGGCUUCGGUGGCGCGAUAGAGCCAACGUCCUCAACCUCCAAUGCAUCCCACCACAUGAUGAUGGCUGAAGAGCCUUGGUUUUUUG [C70A C114G] | -4.93
GACCAAUCUGCCCUCAGAGCUCGAGAACAUCUUCGGAUGCAGAGGAGGCAGGCUUCGGUGGCGCGAUAGAGCCAACGUCCUCAACCUCCAAUGCAUCCCACCACAUGAUGAUGUCUGAAGAGCCUUGGUUUUUUG [C70A C114U] | -3.91
GACCAAUCUGCCCUCAGAGCUCGAGAACAUCUUCGGAUGCAGAGGAGGCAGGCUUCGGUGGCGCGAUAGAGCCAACGUCCUCAACCUCCAAUGCAUCCCACCACGUGAUGAUGCCUGAAGAGCCUUGGUUUUUUG [C70A A105G] | -4.48
GACCAAUCUGCCCUCAGAGCUCGAGAACAUCUUCGGAUGCAGAGGAGGCAGGCUUCGGUGGCGCGAUAGAGCCAACGUCCUCAACCUCCAAUGCAUCCCACCACAUGAUGAUGCCUGAAGAGCGAUGGUUUUUUG [C70A C124G U125A] | 0.0006
GACCAAUCUGCCCUCAGAGCUCGAGAACAUCUUCGGAUGCAGAGGAGGCAGGCUUCGGUGGCGCGAUAGAGCCAACAUCCUCAACCUCCGAUGCAUCCCACCACAUGAUGAUGCCUGAAGAGCCUUGGUUUUUUG [C70A G77A A90G] | -1.37
GACCAAUCUGCCCUCAGAGCUCGAGAACAUCUUCGGAUGCAGAGGAGGCAGGCUUCGGUGGCGCGAUAGAGCCAACGUCCUCAACCUCCAAUGCAUCCCACCACAUGAUGAUGUCUGAAGAGCCAUGGUUUUUUG [C70A C114U U125A] | -5.48
GACCAAUCUGCCCUCAGAGCUCGAGAACAUCUUCGGAUGCAGAGGAGGCAGGCUUCGGUGGCGCGAUAGAGCCAACCUCCUCAACCUCCAAUGCAUCCCACCACAUGAUGAUGCCUGAAGAGCCUUGGUUUUUUG [C70A G77C] | -2.99
